According to patent EP4265717A1:

B1: anti-MCR-1/MCR-2 protein mouse mAb 2DG5 (antibody, V domains shown)
VH: VKLQESGPGLVKPSQSLSLTCTVTGYSITSDYAWNWIRQFPGNKLEWMGQISDSAVTTYNPSLKSRISINRDTSKNQFFLQLNSVTPEDTATYYCARRNFYGYNFFDYWGRGTSLTVSS
VL: DIQMTQTTSSLSASLGDRVTINCRASQDINNYLNWYQQKPDGTVKLLIYYTSRLHSGVPSRFSGSGSRTDYSLTISNLEREDIATYFCQQGKTIHPWTFGGGTKLDIKR
B2: anti-MCR-1/MCR-2 protein mouse mAb 1IB10 (antibody, V domains shown)
VH: VKLQQSGPELVKPGASVKMSCRASGYTFTSYVMHWVKQKPGQGLEWIGYFNPYNDGANYNEKFKGKATLSSDKSSGTAYMDLSSLTSEDSAVYYCARGPYGNYAMDYWGQGTSVTVSS
VL: DVLMTQTPLSLPVSLGDQASISCRSSQNIVCSYGNPCLEWYLQKPGQSPKLLIYKVSNRFSGVPDRFSGSGSGTDFTLKISRVEAEDLGVYYCFQSSHVPWTFGGGTELEIKR

Key:
[1] = target: mobilized colistin resistance (MCR)-1 protein; test: indirect ELISA, plate coated with 0.2 ug/mL MCR-1 protein, purified antibody in doubling dilutions; details: scale: reciprocal dilution
[2] = target: mobilized colistin resistance (MCR)-2 protein; test: indirect ELISA, plate coated with 0.2 ug/mL MCR-2 protein, purified antibody in doubling dilutions; details: scale: reciprocal dilution

Binder	titer [1]	titer [2]
B1	> 1.28e+06	> 1.28e+06
B2	> 1.28e+06	> 1.28e+06
